Source: the supplement of paper PMC10567573

B1: PLD5 (parent)
chain: WIVDKQHVYIGSAGLDWQSLGQMK
B2: KLHDC10 (parent)
chain: PSLLELAWEKLLAAFPNLANLSRT

Variants of: B1
Test: protein stability index of a GFP-peptide fusion (GPS, HEK-293T) (PSI 1-6); higher = more stable
Settings: c terminus: a fixed tail appended
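Also: lentivirally expressed fusions sorted by FACS into six bins by GFP to DsRed ratio, PSI derived from sequencing read proportions per bin multiplied by bin number.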

Protein stability index of substitutions, site by site:
W1: I 3.17; Y 2.23; A 2.11; H 2.12; P 2.32; S 2.2; C 1.59; T 2.41; R 2.77; E 2.24; K 2.32; Q 2.5; V 1.79; L 2.12; N 2.19; M 1.43; D 2.15; F 2.4; G 2.67
V3: F 1.96; C 1.6; D 2.02; H 1.74; L 2.01; R 1.52; N 2.35; P 1.97; Q 1.83; Y 1.56; I 2.64; K 1.84; G 2.1; W 2.13; A 1.86; T 1.59; M 1.5; E 2.09; S 2.09
D4: K 4.58; N 3.09; V 3.83; T 4.09; S 2.29; H 2.37; M 2.12; Q 1.45; W 1.96; G 1.39; E 1.39; P 1.13; A 1.83; L 1.84; R 3.94
Y9: C 1.54; A 2.33
H7: Q 1.96; M 2.6; N 1.48; P 2.27; Y 2.6; S 2.26; R 2.36; T 2.26; A 2.63; W 3.59; D 1.98; C 1.37; E 1.42; G 2.17; K 1.54
I2: H 1.88; D 2.16; G 1.87; A 2.32; V 1.39; M 1.5; L 1.88; Q 2.48; E 2.18; Y 1.82; R 2.17; T 1.46; W 1.86; C 1.83; S 2.08; N 1.61; K 1.9; P 2.65; F 1.64
V8: H 1.54; L 1.93; M 2.45; S 1.69; F 1.92; I 2.31; Q 2.11; A 1.66; Y 1.25; K 1.9; N 2.01; W 2.43; G 1.35; E 2.01; D 1.5; T 1.81; C 1.58; R 4.04; P 2.06
K5: D 1.42; W 2.34; N 2.12; Q 1.74; F 4.11; I 3.22; Y 1.61; R 1.94; H 1.55; T 2.98; S 1.07; C 2.29; E 2.42; G 1.8; A 4.17; P 1.74
Q6: H 2.1; E 1.95; S 1.37; V 2.08; D 1.4; M 2.63; R 2.3; K 1.66; C 1; T 1.84; W 4.19; A 1.51; P 1.5; G 3.38; F 2.05; N 1.58; Y 1.41; L 2.87

Variants of: B2
Test: as above
Settings: c terminus: a fixed tail appended

Protein stability index: each site, then its substitutions
N17: Q 1.94; Y 2.44; R 2.09; L 2.15; I 2.01; F 2.25; P 1.97; H 2.13; S 2.29; G 3.66; V 2.18; E 1.62; C 1.81; T 1.8; D 2.03; A 2.5; K 1.43; M 2.56; W 2.94
R23: Q 2.1; M 1.87; N 2.17; T 2.22; S 1.55; W 2.34; F 1.96; Y 1.67; G 2.76; D 1.28; K 2.16; C 1.98; H 2.02; I 1.78; E 1.87; L 2.42; A 1.55; P 1.99; V 2.33
S22: N 2.23; W 2.21; Q 2.38; T 2.3; K 2.57; R 2.71; G 1.9; M 2.02; H 2.11; E 2.59; Y 1.81; I 2.28; A 2.81; F 2.46; P 2.21; V 1.78; D 1.95; C 2.34; L 2.4
L21: V 2.35; C 2.16; D 2.33; W 2.6; Q 2.05; H 2.72; P 2.07; F 2.54; M 2.25; N 2.52; R 2.38; E 1.82; K 2.38; S 2.17; G 2.22; I 1.76; T 2.6; Y 2.4; A 2.14
P16: N 2.03; T 2.01; C 2.23; Q 2.12; Y 2.06; E 1.45; L 1.78; H 1.55; A 1.84; G 1.25; F 1.51; D 2.2; W 2.35; V 3.1; M 2.62; I 1.63; S 1.4
T24: D 2.79; M 2.17; K 2.25; E 2.22; C 1.6; Q 1.56; G 2.17; V 2.29; N 2.23; F 2.06; A 2.34; P 2.44; S 2.14; Y 2.32; I 2.03; W 2.28; L 1.85; H 2.56; R 2.6
A19: S 2; F 2; D 2.46; P 2.29; Y 2.02; V 2.3; W 1.57; H 1.93; L 1.8; I 2.32; C 2.04; T 1.77; G 2.17; Q 2.37; E 2.31; M 2.1; N 2.29; K 1.95; R 2.4
F15: T 2.1; W 2.4; A 2.23; R 2.11; L 2.16; C 1.78; D 2.3; Q 2.52; G 2.08; Y 1.7; M 2.06; V 2.38; H 2.06; S 1.92; I 1.39; P 2.49; N 2.31; E 2.36; K 1.78
N20: K 1.49; H 2.46; F 2.17; T 1.62; M 3.12; W 2.04; Q 2.09; C 2.68; I 2.24; E 2.25; D 1.51; S 2.59; G 2.12; L 1.77; A 2.08; P 1.89; R 1.89; V 2.47; Y 2.22
L18: W 1.82; V 1.81; G 2.56; E 2.35; P 2.15; R 1.73; Y 1.86; M 1.84; K 1.78; T 1.96; C 2.23; H 1.84; D 2.1; A 2.15; S 2.01; I 2.08; F 2.52; N 2.97; Q 2.35
A14: T 2.2; V 2.4; Y 3; W 3.3
